The target in the assay is Calmodulin (Bos taurus, UniProt P62157). In words: dansyl-calmodulin fluorescence titration.

The results in this text go back to PMC2695410 (2009).

In general, Kd refers to the concentration at which binding is half-saturated. A high value points to weaker binding.

Turning to RAYLLVGGLWTAISKALFAEF (dansyl-calmodulin, Ca2+) [Aquaporin 6 N-terminal peptide (Nter) N-terminal calmodulin binding site, 21-aa peptide], the Kd turned out to be 0.79 µM.
For WASMLACRLWKAISRALFAEF (dansyl-calmodulin, Ca2+) [Aquaporin 6 N-terminal peptide (h6 Nter) N-terminal calmodulin binding site, 21-aa peptide], binding was characterised by a dissociation constant (Kd) of 1.78 µM.
